{
  "source": "paper doi:10.1101/2021.10.29.464531",
  "target": "tick-borne encephalitis virus capsid protein (tick-borne encephalitis virus, strain Kuutsalo-14)",
  "assay": "cross-linking",
  "data": [
    {"substance": "tick-borne encephalitis virus capsid protein (natural protein)", "values": [
      {"measurement": "stoichiometry N", "result": 2}
    ]}
  ]
}
